In article PMC5799168 (Scientific Reports, 2018):

Test system: wild-type and mutant Ndi1
Assay: Kinetic parameters of the oxidoreductase activity of wild-type and mutant Ndi1 for ubiquinone-1
Format: biochemical, Saccharomyces cerevisiae
Settings: for Km: apparent Km for ubiquinone-1 (2.4–60 µM); for Km / Vmax: NADH fixed at 100 µM; for Vmax: ubiquinone-1 as substrate (2.4–60 µM)
Experimental: This unique structure appears to be related to the competitive nature of the inhibition of Ndi1 oxidoreductase activity by stigmatellin. It is therefore hypothesized that L444, I459, R460, and S461, which interact with stigmatellin at the STG-1a site, are also involved in the binding of the substrate ubiquinone (Fig. 5). This hypothesis was evaluated by examining the effects of mutations of the proximal L444 and I459 on the kinetics of the enzymatic reaction of Ndi1. The effect of the mutation of S484, which specifically interacts with stigmatellin at the STG-1b site, was examined as a control. Furthermore, the effects of mutations of W63, P92, A393, Q394, H397, L447, Y482, M485, and L487, which interact with the aromatic head group of stigmatellin at the STG-1a and STG-1b sites, were also examined. Moreover, to investigate the functional role of the STG-2 site in ubiquinone binding, a mutation was also introduced to R479.
NADH-ubiquinone oxidoreductase activity was measured as described previously. In brief, the reaction was started by adding 100 µM NADH to the enzyme mixture containing 10 ng/mL Ndi1, 50 mM sodium phosphate (pH 6.0) and 1 mM EDTA, which was pre-incubated with various concentrations of ubiquinone-1 for 1 min. The decrease in 340 nm absorbance was measured as an indication of the oxidation of NADH (ε = 6.22 mM^−1 cm^−1) with a Shimadzu UV2000 spectrophotometer (Kyoto, Japan). The enzymatic activity obtained with 100 µM NADH and 60 µM ubiquinone-1 in the absence of any inhibitors (100% activity) catalyzed the oxidation of 1,890 μmol NADH/min/mg Ndi1. The concentrations of inhibitors required to obtain the half-maximal inhibition (IC50) were estimated by non-linear regression dose-response curves. The inhibition mode of each inhibitor for ubiquinone-1 was determined by the intersection point in double-reciprocal plots (Fig. 2B–E). To objectively evaluate the inhibition mode, the data of the inhibition kinetics were fitted to the Eq. (1) of mixed model inhibition in the Prism6 software program (GraphPad Software, Inc., La Jolla, CA).1 V=Vmax[S]/[S](1+[I]/αKi)+Km(1+[I]/Ki) […]
To determine the kinetic parameters of wild-type and mutant enzymes for ubiquinone-1, the NADH oxidation rates were measured in a fixed concentration of NADH (100 µM) and different concentrations of ubiquinone-1 (2.4–60 µM). Apparent Km and Vmax values were obtained by fitting a data set of initial velocity versus substrate concentration to the Michaelis-Menten model equation in the Prism6 software program.
Site-directed mutagenesis. The amino acid replacements of Ndi1 were basically performed with PrimeSTAR mutagenesis basal kit (Takara, Japan) using pET16b(NDI1-m) (2) and a synthetic oligonucleotide primer set (Table S2). The mutagenesis of H397 was performed with a QuikChange II XL site-directed mutagenesis kit (Stratagene, CA). Each mutation was confirmed through DNA sequencing (DNA sequencing service, Eurofins). The purification procedure of wild-type and mutant enzymes, used for the determination of the kinetic parameters (Table 2), was basically the same as the above procedure, without the replacement of the detergent from Triton X -100 with DDM. After washing the enzyme with buffer A containing 0.1% Triton X-100 and 15 mM histidine, 0.02% Triton X-100 was added to all buffer as a substitute for DDM. With the exception of 5 mutants containing L444D, I459A, […]
yield of the wild-type enzyme. […]

Molecule | Km [µM] | Vmax, % of the wild-type activity (relative to wild-type Ndi1) [%] | increase of Km value for ubiquinone-1 in comparison to wild-type enzyme (relative to wild-type Ndi1) [fold] | Vmax [µmol/min/mg]
M485E: recombinant Ndi1 mutant M485E (protein, UniProt P32340 27-513, looked up, variant M485E) Rotenone-insensitive …: STGVENSGAGPTSFKTMKVIDPQHSDKPNVLILGSGWGAISFLKHIDTKKYNVSIISPRSYFLFTPLLPSAPVGTVDEKSIIEPIVNFALKKKGNVTYYEAEATSINPDRNTVTIKSLSAVSQLYQPENHLGLHQAEPAEIKYDYLISAVGAEPNTFGIPGVTDYGHFLKEIPNSLEIRRTFAANLEKANLLPKGDPERRRLLSIVVVGGGPTGVEAAGELQDYVHQDLRKFLPALAEEVQIHLVEALPIVLNMFEKKLSSYAQSHLENTSIKVHLRTAVAKVEEKQLLAKTKHEDGKITEETIPYGTLIWATGNKARPVITDLFKKIPEQNSSKRGLAVNDFLQVKGSNNIFAIGDNAFAGLPPTAQVAHQEAEYLAKNFDKMAQIPNFQKNLSSRKDKIDLLFEENNFKPFKYNDLGALAYLGSERAIATIRSGKRTFYTGGGLMTFYLWRILYLSEILSARSRLKVFFDWIKLAFFKRDFFKGL | 63.5 ± 7.8 | 112 | 2.8 | 1190 ± 96
P92A: recombinant Ndi1 mutant P92A (protein, UniProt P32340 27-513, looked up, variant P92A) Rotenone-insensitive …: STGVENSGAGPTSFKTMKVIDPQHSDKPNVLILGSGWGAISFLKHIDTKKYNVSIISPRSYFLFTALLPSAPVGTVDEKSIIEPIVNFALKKKGNVTYYEAEATSINPDRNTVTIKSLSAVSQLYQPENHLGLHQAEPAEIKYDYLISAVGAEPNTFGIPGVTDYGHFLKEIPNSLEIRRTFAANLEKANLLPKGDPERRRLLSIVVVGGGPTGVEAAGELQDYVHQDLRKFLPALAEEVQIHLVEALPIVLNMFEKKLSSYAQSHLENTSIKVHLRTAVAKVEEKQLLAKTKHEDGKITEETIPYGTLIWATGNKARPVITDLFKKIPEQNSSKRGLAVNDFLQVKGSNNIFAIGDNAFAGLPPTAQVAHQEAEYLAKNFDKMAQIPNFQKNLSSRKDKIDLLFEENNFKPFKYNDLGALAYLGSERAIATIRSGKRTFYTGGGLMTFYLWRILYLSMILSARSRLKVFFDWIKLAFFKRDFFKGL | 25.6 ± 2.2 | 1 | – | 11.3 ± 0.4
M485A: recombinant Ndi1 mutant M485A (protein, UniProt P32340 27-513, looked up, variant M485A) Rotenone-insensitive …: STGVENSGAGPTSFKTMKVIDPQHSDKPNVLILGSGWGAISFLKHIDTKKYNVSIISPRSYFLFTPLLPSAPVGTVDEKSIIEPIVNFALKKKGNVTYYEAEATSINPDRNTVTIKSLSAVSQLYQPENHLGLHQAEPAEIKYDYLISAVGAEPNTFGIPGVTDYGHFLKEIPNSLEIRRTFAANLEKANLLPKGDPERRRLLSIVVVGGGPTGVEAAGELQDYVHQDLRKFLPALAEEVQIHLVEALPIVLNMFEKKLSSYAQSHLENTSIKVHLRTAVAKVEEKQLLAKTKHEDGKITEETIPYGTLIWATGNKARPVITDLFKKIPEQNSSKRGLAVNDFLQVKGSNNIFAIGDNAFAGLPPTAQVAHQEAEYLAKNFDKMAQIPNFQKNLSSRKDKIDLLFEENNFKPFKYNDLGALAYLGSERAIATIRSGKRTFYTGGGLMTFYLWRILYLSAILSARSRLKVFFDWIKLAFFKRDFFKGL | 18.6 ± 1.1 | 28 | – | 292 ± 9.9
L447N: recombinant Ndi1 mutant L447N (protein, UniProt P32340 27-513, looked up, variant L447N) Rotenone-insensitive …: STGVENSGAGPTSFKTMKVIDPQHSDKPNVLILGSGWGAISFLKHIDTKKYNVSIISPRSYFLFTPLLPSAPVGTVDEKSIIEPIVNFALKKKGNVTYYEAEATSINPDRNTVTIKSLSAVSQLYQPENHLGLHQAEPAEIKYDYLISAVGAEPNTFGIPGVTDYGHFLKEIPNSLEIRRTFAANLEKANLLPKGDPERRRLLSIVVVGGGPTGVEAAGELQDYVHQDLRKFLPALAEEVQIHLVEALPIVLNMFEKKLSSYAQSHLENTSIKVHLRTAVAKVEEKQLLAKTKHEDGKITEETIPYGTLIWATGNKARPVITDLFKKIPEQNSSKRGLAVNDFLQVKGSNNIFAIGDNAFAGLPPTAQVAHQEAEYLAKNFDKMAQIPNFQKNLSSRKDKIDLLFEENNFKPFKYNDLGANAYLGSERAIATIRSGKRTFYTGGGLMTFYLWRILYLSMILSARSRLKVFFDWIKLAFFKRDFFKGL | 17.9 ± 1.8 | 13 | – | 140 ± 7.1
